Experimental data: patent US20030157712A1, “Methods for determining cell responses through EphB receptors” (priority 1997, published 2003)

Assays:
P19 cells = assay: P19 attachment to nitrocellulose coated surfaces preadsorbed with ligand and fibronectin; format: cell-based, murine; settings: 500 ng/well ligand with fibronectin 500 ng/well on nitrocellulose, 90 min at 37° C.
Description: Specifically, nitrocellulose coated surfaces were preadsorbed with 500 ng/well of non-denatured ephrin-B1/Fc, either as dimer (LERK-2/Fc) or preclustered multimer (LERK2/FC+anti-Fc) or control protein (anti-Fc, BSA), with fibronectin (500 ng/well). P19 cells were plated and the % attached cells were assayed after a 90 min incubation at 37° C.

[1] = tested on: human renal microvascular endothelial cells; assay: Solid phase cell attachment assay (HRMEC); format: cell-based
Description: Solid phase cell attachment assays. Forty-eight-well plates (Falcon) were coated with a layer of nitrocellulose (Schleicher & Schuell) and allowed to air dry as described (47). Coated wells were incubated overnight at 4° C. with PBS containing matrix proteins at the indicated concentrations alone (no addition, NA) or in combination with dimeric EphrinB1/Fc. Two hours prior to assay, wells were washed twice then blocked at 37° C. with 1% BSA. Serum starved cells were harvested in 2 mM EDTA in PBS (HEK293) or recovered by trypsinization (HRMEC), washed twice in serum free medium containing 1% BSA, then plated at a density of 0.7-1×10^5 cells per well. After incubation at 37° C. for 1 hour (or as specified), unattached cells were dislodged by 5 brisk slaps of the plate on a horizontal surface. Wells were gently washed with PBS until cells were not adherent to albumin-coated wells. Adherent cells were fixed with 2% glutaraldehyde, stained with 0.5% crystal violet (in EtOH), and quantified by OD reading at 570 nm. In experiments using competitive peptides or blocking antibodies, cells were preincubated with the indicated peptides (100 μM) or antibodies (10 μg/ml) for 15 min at RT before plating. Results representative of three independent experiments are given as OD values and represent the mean of duplicate or triplicate wells±SEM.
To determine if this ephrin-B1 surface density effect was mediated through integrins, a defined RGD peptide, GRGDSPK (SEQ ID NO:3), was applied to the surfaces in the absence and presence of ephrin-B1/Fc, or IgG1. Attachment assays of serum-starved microvascular endothelial cells to GRGDSPK (SEQ ID NO:3)-coated 48-well-plates were performed as described herein. Cells were preincubated for 15 min at 22° C. with blocking peptides (100 uM) or anti-integrin antibodies (10 ug/ml) before plating. Similar results were obtained using fibrinogen (1 ug/cm^2). HEK293 cells were transiently transfected with pSRα-EphB1 and attachment assays were performed after 48 hours as described herein.

[2] = tested on: Grb2 and Grb10 and Nck recruitment to EphB1 complexes; assay: Recruitment of SH2-containing adapter proteins to EphB1 complexes; format: cell-based
Description: Ligand stimulation and immunoprecipitation of endogenous EphB receptors. Primary HRMEC were used at passages 3-6, as described (12). P19 cells were cultured as recommended (ATCC, Rockville, Md.). Ninety min prior to ligand stimulation, cells (2×10^5cells/60 mm dish) were plated on Matrigel-(Collaborative Biomedical Products, Becton Dickinson, Bedford, Mass., as recommended) or fibronectin-coated (29) dishes. Ligand (ephrin-B1/Fc) or control (ORF/Fc) (30) multimers were generated by preincubation with anti-Fc at a fixed ratio of 0.1× the indicated concentrations of Fc fusion proteins [50 ng ml^−1 anti-Fc for 500 ng ml^−1 Fc fusion protein]. If not otherwise indicated, Fc fusion proteins (ephrinB1/Fc or ORF/Fc) were used at 500 ng ml^−1 in the absence or presence of preclustering anti-Fc at 50 ng ml^−1. Cells were incubated with agonists at 37° C. for 10 min, or as described in the figure legends. […] Precipitated proteins were analyzed by immunoblot (15).
It was reasoned that alternative signaling responses mediated through EphB receptors might reflect differential association of additional receptor signaling complex components. […] Accordingly, EphB1 immunoprecipitates were analyzed for LMW-PTP immunoreactivity (11,17).

EphB1 = target: T1, EphB1 (Homo sapiens, UniProt P54762); assay: EphB1 immunoprecipitation and phosphotyrosine immunoblot; format: cell-based; settings: endothelial cells on adsorbed ligand
T1 construct: Ligand stimulation and immunoprecipitation of endogenous EphB receptors; endogenous in cells; host or cells: HRMEC (human); P19 (murine teratocarcinoma) in part of the results
T1 sequence (P54762 18-984): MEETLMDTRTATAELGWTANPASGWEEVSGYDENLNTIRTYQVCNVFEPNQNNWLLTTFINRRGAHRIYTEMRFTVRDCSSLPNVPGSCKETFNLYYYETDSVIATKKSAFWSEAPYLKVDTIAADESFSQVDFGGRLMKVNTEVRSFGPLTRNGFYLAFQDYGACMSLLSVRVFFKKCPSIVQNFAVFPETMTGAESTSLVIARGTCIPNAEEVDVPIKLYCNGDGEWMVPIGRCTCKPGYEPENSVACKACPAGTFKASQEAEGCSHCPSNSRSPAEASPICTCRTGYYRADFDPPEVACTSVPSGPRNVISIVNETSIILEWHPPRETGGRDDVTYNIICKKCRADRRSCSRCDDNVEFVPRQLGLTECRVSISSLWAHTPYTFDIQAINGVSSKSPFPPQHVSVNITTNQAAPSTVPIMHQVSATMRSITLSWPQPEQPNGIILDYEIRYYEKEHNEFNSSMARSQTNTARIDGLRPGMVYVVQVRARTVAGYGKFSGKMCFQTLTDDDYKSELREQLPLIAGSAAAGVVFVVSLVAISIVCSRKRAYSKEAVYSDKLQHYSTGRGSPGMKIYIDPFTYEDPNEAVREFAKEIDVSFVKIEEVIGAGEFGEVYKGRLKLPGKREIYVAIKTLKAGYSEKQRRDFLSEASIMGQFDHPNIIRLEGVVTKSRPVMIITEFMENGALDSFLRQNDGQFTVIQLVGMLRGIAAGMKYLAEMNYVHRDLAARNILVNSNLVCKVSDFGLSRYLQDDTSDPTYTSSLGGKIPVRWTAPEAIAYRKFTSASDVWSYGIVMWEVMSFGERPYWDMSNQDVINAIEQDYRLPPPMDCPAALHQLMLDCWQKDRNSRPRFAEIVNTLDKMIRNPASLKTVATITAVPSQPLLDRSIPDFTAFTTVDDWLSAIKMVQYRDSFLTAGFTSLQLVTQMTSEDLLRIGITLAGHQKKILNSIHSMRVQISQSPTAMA

[3] = fibrinogen-coated nitrocellulose surfaces

B1: ephrin-B1/Fc dimers: disulfide-linked immunoglobulin Fc fusion form of ephrin-B1 (protein)
chain: LAKNLEPVSWSSLNPKFLSGKGLVIYPKIGDKLDIICPRAEAGRPYEYYKLYLVRPEQAAACSTVLDPNVLVTCNRPEQEIRFTIKFQEFSPNYMGLEFKKHHDYYITSTSNGSLEGLENREGGVCRTRTMKIIMKVGQDPNAVTPEQLTTSRPSKEADNTVKMATQAPGSRGSLGDSDGKHETVNQEEKSGPGASGGSSGDPDGFFNSK
modifications: left off: a dimerising Fc or GST
Q: How did the “attachment of cells in preadsorbed wells” value (P19 cells) turn out when B1 was run?
A: approximately 40%

Q: And the “endothelial cell attachment, plates pre-coated using standard procedures” value ([1]; alone or in the presence of fibrinogen, no nitrocellulose)?
A: did not promote cell attachment

Q: And the “cell attachment at densities higher than 300 ng/cm^2” value [1, 3]?
A: sharp decline

Q: What about the “coating density evoking maximal cell attachment” value [1, 3] of the same molecule?
A: 300 ng/cm^2

Q: What about the “endothelial attachment, ligand adsorbed to nitrocellulose-coated surfaces” value ([1]; non-denaturing conditions, with fibrinogen, compared with Fc control human IgG1) of the same molecule?
A: promoted endothelial attachment

Q: And the “recruitment of Grb2, Grb10 and Nck to EphB1 complexes, dimeric vs multimeric ligand” value [2]?
A: did not differ

Q: What about the “EphB1 receptor activation at densities greater than 300 ng/cm^2” value (EphB1) of the same molecule?
A: did not show a decrement

Q: And the “adsorption densities stimulating EphB1 receptor activation” value (EphB1; phosphotyrosine immunoblot)?
A: greater than 100 ng/cm^2
